Reference: publication PMC4144707 (Biochemistry, 2014)
Where no end group is shown, it is not given here.

B1: FGFR3 TM–JM (WT) peptide, FGFR3 (369–407) with two N-terminal arginines (peptide)
peptide: RRAGSVYAGILSYGVGFFLFILVVAAVTLCRLRSPPKKGLG-NH2
modifications: also: (5,5,5-d3) leucine at 385 or 388
B2: FGFR3 TM–JM (A391E) peptide, FGFR3 (369–407) with two N-terminal arginines (peptide)
peptide: RRAGSVYAGILSYGVGFFLFILVVEAVTLCRLRSPPKKGLG-NH2
modifications: also: (5,5,5-d3) leucine at 385 or 388

Molecular target: the molecule itself
Assay: deuterium MAS solid-state NMR

Row | Protein | binding result
1 | B1 | binds
2 | B2 | binds
